Experimental data from the supplement of paper PMC11908140.

B1: library; numbered along this chain (parent)
chain: MRKPRAAVGSGHRKQAASQEGRQKHAKNNSQAKPSACDGLARQPEEVVLQASVSSYHLFRDVAEVTAFRGSLLSWYDQEKRDLPWRRRAEDEMDLDRRAYAVWVSEVMLQQTQVATVINYYTGWMQKWPTLQDLASASLEEVNQLWAGLGYYSRGRRLQEGARKVVEELGGHMPRTAETLQQLLPGVGRYTAGAIASIAFGQATGVVDGNVARVLCRVRAIGADPSSTLVSQQLWGLAQQLVDPARPGDFNQAAMELGATVCTPQRPLCSQCPVESLCRARQRVEQEQLLASGSLSGSPDVEECAPNTGQCHLCLPPSEPWDQTLGVVNFPRKASRKPPREESSATCVLEQPGALGAQILLVQRPNSGLLAGLWEFPSVTWEPSEQLQRKALLQELQRWAGPLPATHLRHLGEVVHTFSHIKLTYQVYGLALEGQTPVTTVPPGARWLTQEEFHTAAVSTAMKKVFRVYQGQQPGTCMGSKRSQVSSPCSRKKPRMGQQVLDNFFRSHISTDAHSLNSAAQ

Variants of: B1
Assay: 8OG:A repair function score (normalized; synonymous = 0, nonsense = -1) (normalized log-likelihood score); higher = more repair activity (WT-like)
Settings: with 8OG:A DNA repair reporter (GFP) in HEK-293 MUTYH KO cells
Description: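 Saturation mutagenesis (NNN codon scan) of the MUTYH cDNA (521-aa nuclear isoform NM_001048174.1 / NP_001041639), stably expressed under doxycycline induction in HEK-293 MUTYH knockout cells. Cells were co-transfected with an 8OG:A-bearing GFP repair reporter plus mCherry and sorted 72 h later into GFP+ and GFP− bins, three replicates per tile. The Rosace log2 enrichment (GFP+ vs GFP−) was converted per tile to a normalized function score with synonymous variants centered at 0 and nonsense variants (codons 1-471) at -1; low-abundance variants were removed.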

8OG:A repair function score, by site and new letter:
V53: A 0.00104 | R 0.00694 | D 0.00694 | T -0.0126 | E 0.00193 | H 0.00594 | M -0.112 | I -0.0188 | S 0.00307 | N -0.0892 | Y -0.0142 | G -0.0541 | Q -0.0248 | W -0.276 | L -0.024 | C 0.000965 | K -0.0093 | F -0.00754 | P -0.254
V65: R -0.0229 | K 0.00609 | N -0.208 | G -0.206 | P -0.196 | A -0.138 | L -0.0109 | E -0.196 | Y -0.0274 | W -0.114 | D -0.226 | M -0.139 | I -0.000598 | H -0.0853 | F -0.0274 | S -0.0751 | C -0.00739 | T -0.00404 | Q -0.0644
L58: S -0.0155 | Y -0.0187 | G 0.00575 | K -0.021 | R 0.00693 | C -0.0122 | P -0.622 | D -0.00786 | A 0.00209 | V -0.00997 | F 0.00426 | Q -0.00261 | T -0.0284 | W 0.00529 | E 0.0056 | H 0.00605 | M -0.0211 | I -0.00475 | N 0.00327
A67: F -0.0807 | W -0.0846 | T 0.00198 | E -0.0141 | K -0.0225 | M -0.118 | S 0.00133 | I -0.0242 | Y 0.00691 | L -0.0838 | D 0.00532 | G -0.0739 | Q -0.481 | R 0.00599 | H -0.0348 | V -0.000602 | P -0.143 | N -0.0206 | C 0.00689
E64: H -0.0871 | I -0.193 | T 0.00694 | V -0.0293 | D -0.0139 | F -1.97 | S -0.158 | G -0.0592 | L -0.0405 | K -0.115 | Q 0.00334 | N -0.0585 | C -0.0897 | W -0.219 | Y -0.98 | R -0.103 | A -0.0113 | P -0.284
T66: M -0.0066 | C 0.00591 | L -0.00253 | E 0.00467 | K -0.0706 | P -0.115 | G -0.0192 | I -0.0285 | R -0.0902 | S -0.0428 | A -0.0148 | Q 0.00332 | D 0.00573 | H -0.091 | F -0.00932 | Y -0.00942 | V 0.00408 | N -0.0376
S54: G 0.00441 | Q 0.00389 | H 0.0058 | E 0.00656 | Y 0.00243 | A 0.00533 | P 0.00682 | M -0.0179 | N -0.00348 | T -0.0217 | F -0.0664 | I -0.00479 | L 0.00619 | R -0.0174 | V -0.0294 | W -0.423 | D -0.029 | C 0.00525 | K -0.0583
H57: D -0.824 | Q -0.657 | V -0.613 | T -0.765 | G -0.607 | C -0.642 | W -1.09 | E -0.74 | N -0.729 | S -0.711 | Y -0.569 | P -0.793 | M -1.63 | A -0.797 | K -0.664 | F -0.751 | I -0.613 | R -0.473 | L -0.734
R69: I -3.35 | N -1.56 | E -3.19 | C -0.33 | H -1.89 | G -0.281 | M -3.11 | L -1.24 | F -1.53 | P -1.42 | Q -0.519 | A -1.46 | D -1.4 | K -0.298
V62: T 0.00595 | K 0.00655 | G 0.0052 | C -0.00556 | N 0.00416 | H -0.0066 | S 0.00493 | A -0.00201 | R -0.00306 | L 0.00583 | F 0.00406 | Q -0.0156 | W -0.0135 | Y 0.00694 | M -0.00891 | P 0.00101 | E -0.456 | I -0.00659 | D -0.0781
F59: V -0.24 | G -0.925 | E -0.768 | S -0.561 | R -0.753 | T -0.579 | Y -0.161 | Q -0.967 | H -0.439 | M -0.121 | P -0.371 | K -1.43 | A -0.359 | N -0.954 | I -0.137 | W -0.25 | L -0.095 | D -0.583 | C -0.367
R60: W -0.564 | T 0.00688 | D -0.0771 | C -0.081 | K -0.0179 | Q -0.692 | A -0.0135 | E -0.127 | Y -0.014 | M 0.00468 | F -0.0889 | N 0.00565 | V 0.00595 | I -0.0738 | S 0.00106 | L 0.00645 | H -0.196 | G -0.0378 | P -0.0757
S52: C -0.0302 | R 0.00314 | F -0.0245 | L 0.00142 | W -0.00265 | G -0.00057 | H -0.0255 | D -0.0111 | Q -0.0208 | Y 0.0053 | K 0.0066 | T 0.00677 | I -0.0155 | M -0.00303 | V -0.00119 | E -0.00064 | N -0.0834 | P -0.0118
F68: A -0.234 | V -0.0136 | L -0.141 | W -0.369 | Y -0.0444 | N -1.12 | G -1.41 | K -0.962 | M -0.0967 | P -1.6 | C -0.545 | H -1.1 | T -0.393 | E -1.5 | S -1.34 | Q -0.906 | I -0.126 | D -1.87 | R -1.29
Y56: S -0.0461 | E -0.0123 | W 0.00662 | H -0.00595 | L 0.00637 | R -0.0483 | N -0.0497 | V -0.015 | A -0.0245 | I -0.000994 | M 0.00205 | C -0.0129 | K -0.0455 | D -0.0985 | F 0.0047 | P -0.0566 | G -0.0482 | T -0.011 | Q -0.0234
A63: N -0.101 | Q -0.105 | S 0.00279 | W -0.00488 | V -0.0122 | T 0.00284 | H -0.0822 | F -0.142 | L -0.00968 | D 0.00576 | E -0.00911 | K -0.00172 | Y -0.056 | C -0.0141 | G -0.0575 | R 0.00494 | M -0.0357 | P -0.0204 | I -0.0351
S55: D 0.00222 | R -0.0153 | P -0.274 | K 0.000876 | Q 0.00445 | L -0.149 | E -0.00704 | A 0.00283 | V 0.00566 | H -0.00673 | I -0.0166 | Y 0.000496 | C -0.043 | G 0.00135 | N 0.00188 | F -0.000223 | T 0.00523 | W -0.0142 | M -0.0231
D61: F -0.794 | T 0.00691 | R -0.037 | Y -0.0853 | H -0.208 | A -0.0921 | V -0.137 | E -0.0493 | L 0.00218 | K 0.00675 | W -0.127 | S -0.013 | P -0.00103 | Q -0.0778 | I -0.0219 | M -0.00523 | G 0.00587 | N -0.0108 | C -0.0189
